Data as given in US20140377253A1 (published 2014).
Changes are numbered by the printed parent chain. In names and notes the source's numbering stands. Blank lines part the entries; values can stand above or below the binder they belong to.

Experiments:
[1] = biological target: T1, FcγRIIB expressed on cells (UniProt P31994 43-310); experiment: FACS
T1 chain: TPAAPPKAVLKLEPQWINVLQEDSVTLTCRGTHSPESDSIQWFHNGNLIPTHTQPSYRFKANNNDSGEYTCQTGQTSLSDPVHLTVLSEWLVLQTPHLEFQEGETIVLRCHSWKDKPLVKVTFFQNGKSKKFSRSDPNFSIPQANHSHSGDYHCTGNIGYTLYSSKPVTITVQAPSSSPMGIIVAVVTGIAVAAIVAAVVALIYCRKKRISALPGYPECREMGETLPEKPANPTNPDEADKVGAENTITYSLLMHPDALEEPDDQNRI

[2] = biological target: FcγRIIIA expressed on cells (UniProt P08637 17-254); experiment: FACS
Chain of FcγRIIIA expressed on cells (P08637 17-254): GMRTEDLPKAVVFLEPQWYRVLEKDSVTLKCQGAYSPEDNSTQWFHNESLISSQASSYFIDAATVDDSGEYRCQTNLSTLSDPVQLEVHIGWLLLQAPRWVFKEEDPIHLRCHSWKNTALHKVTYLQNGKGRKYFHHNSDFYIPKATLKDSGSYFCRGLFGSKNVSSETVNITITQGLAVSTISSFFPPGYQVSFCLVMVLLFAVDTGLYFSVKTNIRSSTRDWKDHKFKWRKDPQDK

B2: V273M (protein)
chain: APELLGGPSVFLFPPKPKDTLMISRTPEVTCVVVDVSHEDPEMKFNWYVDGVEVHNAKTKPREEQYNSTYRVVSVLTVLHQDWLNGKEYKCKVSNKALPAPIEKTISKAK
EC50 [1]: 1.63 nM
EC50 [2]: 1.59 nM

B5: V273E (protein)
chain: B2 chain with M43E
EC50 [1]: 1.66 nM
EC50 [2]: 1.78 nM

B6: V305K (protein)
chain: B2 chain with M43V, V75K
EC50 [1]: 1.93 nM
EC50 [2]: 0.51 nM

B7: V273S (protein)
chain: B2 chain with M43S
EC50 [1]: 1.72 nM
EC50 [2]: 1.33 nM

B8: V266L (protein)
chain: B2 chain with V36L, M43V
EC50 [1]: 2.22 nM
EC50 [2]: 0.76 nM

B9: V305W (protein)
chain: B2 chain with M43V, V75W
EC50 [1]: 2.86 nM
EC50 [2]: 0.74 nM

The remaining binders from weak to strong by EC50 [1], led by results:

EC50 [1]: 2.03 nM
EC50 [2]: 1.19 nM
B11: V273C (protein)
chain: B2 chain with M43C

EC50 [1]: 1.8 nM
EC50 [2]: 1.52 nM
B1: V263L (protein)
chain: B2 chain with V33L, M43V

EC50 [1]: 1.66 nM
EC50 [2]: 0.69 nM
B10: V273L (protein)
chain: B2 chain with M43L

EC50 [1]: 1.18 nM
EC50 [2]: 3.19 nM
B4: V273Y (protein)
chain: B2 chain with M43Y

EC50 [1]: 1.08 nM
EC50 [2]: 2.01 nM
B3: V273F (protein)
chain: B2 chain with M43F
